Earlier results in patent publication US5993783A, “Method and apparatus for pulmonary administration of dry powder α1-antitrypsin” (Inhale Therapeutic Systems, priority 1998, dated 1999).

Settings: similar sheep model, Smith et al. 1989

Substance: α1AT: α1-antitrypsin, a protease inhibitor with inhibitory activity toward neutrophil elastase
- rate of clearance of α1AT out of the lungs, % of the total rate of α1AT transported out of the lung: 16.1±10.4%
